A word on the stoichiometry N: it is the number of molecules, sites or subunits per partner or assembly.

This note sets out measurements from publication PMC8908248 (The Journal of Biological Chemistry, 2022).

Data set [1] has as its target homodimeric sulfite oxidase Mo domain (Mo/Mo) (human). The experiment in a line: SEC.
The data set “SEC” deals with the molecule itself. Put plainly: SEC. For orientation: In gel filtration, larger molecules generally elute earlier.

In the case of “homodimeric sulfite oxidase Mo domain (Mo/Mo) (domain or fragment)”, the stoichiometry N in data set [1] was 2.

B1: mature full-length human sulfite oxidase (WT SOX/SOX homodimer) (enzyme, UniProt P51687 80-545, looked up)
chain: ESTHIYTKEEVSSHTSPETGIWVTLGSEVFDVTEFVDLHPGGPSKLMLAAGGPLEPFWALYAVHNQSHVRELLAQYKIGELNPEDKVAPTVETSDPYADDPVRHPALKVNSQRPFNAEPPPELLTENYITPNPIFFTRNHLPVPNLDPDTYRLHVVGAPGGQSLSLSLDDLHNFPRYEITVTLQCAGNRRSEMTQVKEVKGLEWRTGAISTARWAGARLCDVLAQAGHQLCETEAHVCFEGLDSDPTGTAYGASIPLARAMDPEAEVLLAYEMNGQPLPRDHGFPVRVVVPGVVGARHVKWLGRVSVQPEESYSHWQRRDYKGFSPSVDWETVDFDSAPSIQELPVQSAITEPRDGETVESGEVTIKGYAWSGGGRAVIRVDVSLDGGLTWQVAKLDGEEQRPRKAWAWRLWQLKAPVPAGQKELNIVCKAVDDGYNVQPDTVAPIWNLRGVLSNAWHRVHVYVSP
B1: in “SEC”, the “stoichiometry N” value amounted to 2.
